Test results as given in patent US20260234238A1 (GEOVISTA, published 2026).
Values joined by “and” are separate entries in the source; they are usually repeats but may differ in a detail not shown here. Identical values can stand only once.

What was measured:
[1] = molecular target: T1, recombinant histidine-tagged canine interleukin-13 (cIL-13) (canine, UniProt Q9N0W9 19-131, N-linked glycans attached to asparagine residues at positions 38, 48, 56, and 71); assay: ELISA, His-tagged cIL-13 on nickel-coated plate
T1 construct: mature; Secreted from ExpiCHO-S cells and purified by IMAC; also called canine IL-13; Canis Interleukin-13
T1 sequence: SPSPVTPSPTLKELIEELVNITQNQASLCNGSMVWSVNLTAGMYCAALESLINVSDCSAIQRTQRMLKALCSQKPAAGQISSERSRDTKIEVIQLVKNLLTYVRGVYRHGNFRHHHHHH
Experimental: In one embodiment of the present disclosure, recombinant canine IL-13 (cIL-13) protein with a histidine tag was dispensed onto nickel-coated plates (Thermo Fisher, #15442) at 100 ng/100 μL per well and incubated at room temperature for 1 hour. The plates were then washed three times with 1×PBST, and serial dilutions of the chimeric antibodies in 1×PBS were added and incubated at room temperature for 1 hour to allow antigen-antibody binding. After three washes with 1×PBST, an HRP-conjugated secondary antibody that cross-reacts with canine antibodies was diluted 1:100 in casein buffer and added at 100 μL per well, followed by incubation at 37° C. for 30 minutes. The HRP-conjugated secondary antibody used may be Jackson ImmunoResearch, #115-036-071, and the casein buffer may be Thermo Fisher Scientific, #37528; however, these examples are not intended to limit the scope of the present disclosure. After another three washes with 1×PBST, TMB was added to initiate color development, and the reaction was terminated by the addition of an equal volume of 1.0 N sulfuric acid.

[2] = molecular target: T1, recombinant histidine-tagged canine …; assay: cell-based or functional assay
[3] = molecular target: T1, recombinant histidine-tagged canine …; assay: ELISA, His-tagged cIL-13 on nickel plate
Experimental: A conventional ELISA method was used to assess the antigen reactivity of the caninized antibodies. The inventors of the present invention coated 96-well nickel plates with His-tagged cIL-13 at a concentration of 1 μg/mL and incubated the plates at room temperature for 1 hour. Wells were washed three times using 200 μL of wash buffer per well; the wash buffer consisted of 1×PBS containing 0.1% Tween-20. In one embodiment of the present disclosure, diluted antibodies were added to the wells at 100 μL per well and incubated again at room temperature for 1 hour. The dilution buffer used was a 1:1 mixture of 25 mL of 1× casein solution and 25 mL of 1×PBS. Next, 50 μL of HRP-conjugated goat anti-human IgG was diluted in 10 mL of dilution buffer and dispensed at 100 μL per well, followed by incubation at room temperature for 1 hour. The wells were then washed three times with 200 μL of wash buffer. TMB substrate (50 μL per well) was added. The plates were incubated at room temperature for 10 minutes. The reaction was stopped by adding 50 μL per well of 1 N sulfuric acid as a stop solution, and absorbance was measured at 450 nm using a spectrophotometer.

B1: Chimeric 32A10 CO (antibody, V domains shown)
VH: QVQLKQSGPELVKPGASVKVSCKTSGYSFTDYPIYWVRQSHGESLEWIGYIDPYNGGTTYNQNFKDKATLTVDKSSSTAFMHLYSLTSEDSAVYFCATAVVATDVMENWGQGTSVTVSS
VL: DIVLTQSQKFMSTSVGDRVSITCKASQNVRNAVAWFQQKPGQSPKALIYLASNRYTGVPDHFTGSGSGTDFTLTISNVQSEDLADYFCLQHWNYPLTFGAGTKLELK
notes: also called Chimeric antibody (CO type)
- EC50 [1]: 0.162 µg/mL and 1.08 nM

B2: Ab4 (antibody, V domains shown)
VH: EVQLVQSGAEVKKPGASVKVSCKTSGYTFIDYPMYWVRQAPGAGLEWMGYIDPYNGATSYNQNFKGRVTLTADKSTSTAYMELSSLRAGDIAVYYCATAVVATDVMENWGQGTLVTVSS
VL: EIVMTQSPASLSLSQEERVTITCRASQNVRNALAWYQQKPGQAPKLLIYLTSNRYTGVPSRFSGSGSGTDFTFTISSLEPEDVAVYYCLQHWNYPLTFGAGTKVELK
notes: Caninized antibody
- TF-1 cell proliferation inhibition IC50 [2]: 71.5 nM
- EC50 [3]: 0.0572 µg/mL

B3: Ab21 (antibody, V domains shown)
VH: EVQLVQSGAEVVKPGASVKVSCKTSGYSFTDYPIYWVRQAPGAGLEWIGYIDPYNGGTTYNQNFKDRVTLTADKSTSTAYMELSSLRAGDIAVYYCATAVVATDVMENWGQGTLVTVSS
VL: EIVLTQSPASLSLSQEERVTITCKASQNVRNAVAWFQQKPGQAPKALIYLASNRYTGVPSRFSGSGSGTDFTLTISSLEPEDVADYFCLQHWNYPLTFGAGTKVELK
notes: Caninized antibody
- TF-1 cell proliferation inhibition IC50 [2]: 1.13 nM
- EC50 [3]: 0.122 µg/mL

B4: Ab2 (antibody, V domains shown)
VH: EVQLVQSGAEVKKPGASVKVSCKTSGYTFIDYPMYWVRQAPGAGLEWMGYIDPYNGATSYNQKFQGRVTLTADTSTSTAYMELSSLRAGDIAVYYCARAVVATDVMENWGQGTLVTVSS
VL: EIVLTQSPASLSLSQEERVTITCKASQNVRNAVAWFQQKPGQAPKALIYLASNRYTGVPSRFSGSGSGTDFTLTISSLEPEDVADYFCLQHWNYPLTFGAGTKVELK
notes: Caninized antibody
- EC50 [3]: 0.0782 µg/mL

B5: Ab10 (antibody, V domains shown)
VH: EVQLVQSGAEVKKPGASVKVSCKTSGYTFIDYPMYWVRQAPGAGLEWMGYIDPYNGATSYNQNFKGRVTLTADKSTSTAYMELSSLRAGDIAVYYCATAVVATDVMENWGQGTLVTVSS
VL: DIVMTQTPLSLSVSPGETASISCKASQNLRNALAWFRQKPGQSPQALIYLVSNRYPGVPDRFSGSGSGTDFTLRISRVEAEDTGVYYCLQHWQYPLTFGAGTKVELK
notes: Caninized antibody
- EC50 [3]: 0.0819 µg/mL

B6: Ab22 (antibody, V domains shown)
VH: EVQLVQSGAEVVKPGASVKVSCKTSGYSFTDYPIYWVRQAPGAGLEWIGYIDPYNGGTTYNQNFKDRVTLTADKSTSTAYMELSSLRAGDIAVYYCATAVVATDVMENWGQGTLVTVSS
VL: DIVLTQTPLSLSVSPGETASISCKASQNVRNAVAWFRQKPGQSPQALIYLASNRYTGVPDRFSGSGSGTDFTLRISRVEAEDTGDYFCLQHWNYPLTFGAGTKVELK
notes: Caninized antibody
- TF-1 cell proliferation inhibition IC50 [2]: 0.98 nM
- EC50 [3]: 0.137 µg/mL

B7: Ab1 (antibody, V domains shown)
VH: EVQLVQSGAEVKKPGASVKVSCKTSGYTFIDYPMYWVRQAPGAGLEWMGYIDPYNGATSYNQNFKGRVTLTADKSTSTAYMELSSLRAGDIAVYYCATAVVATDVMENWGQGTLVTVSS
VL: EIVLTQSPASLSLSQEERVTITCKASQNVRNAVAWFQQKPGQAPKALIYLASNRYTGVPSRFSGSGSGTDFTLTISSLEPEDVADYFCLQHWNYPLTFGAGTKVELK
notes: Caninized antibody
- EC50 [3]: 0.0564 µg/mL

B8: Ab12 (antibody, V domains shown)
VH: EVQLVQSGAEVVKPGASVKVSCKTSGYSFTDYPIYWVRQAPGAGLEWIGYIDPYNGGTTYNQNFKDRVTLTADKSTSTAYMELSSLRAGDIAVYYCATAVVATDVMENWGQGTLVTVSS
VL: DIVMTQTPLSLSVSPGETASISCKASQSLRSALAWFRQKPGQSPQRLIYLVSNRYPGVPDRFSGSGSGTDFTLRISRVEAEDTGVYYCLQHWQFPLTFGAGTKVELK
notes: Caninized antibody
- EC50 [3]: 4.39 µg/mL

B9: Ab11 (antibody, V domains shown)
VH: EVQLVQSGAEVKKPGASVKVSCKTSGYTFIDYPMYWVRQAPGAGLEWMGYIDPYNGATSYNQKFQGRVTLTADTSTSTAYMELSSLRAGDIAVYYCARAVVATDVMENWGQGTLVTVSS
VL: DIVMTQTPLSLSVSPGETASISCKASQNLRNALAWFRQKPGQSPQALIYLVSNRYPGVPDRFSGSGSGTDFTLRISRVEAEDTGVYYCLQHWQYPLTFGAGTKVELK
notes: Caninized antibody
- EC50 [3]: 0.111 µg/mL

B10: Ab6 (antibody, V domains shown)
VH: EVQLVQSGAEVVKPGASVKVSCKTSGYSFTDYPIYWVRQAPGAGLEWIGYIDPYNGGTTYNQNFKDRVTLTADKSTSTAYMELSSLRAGDIAVYYCATAVVATDVMENWGQGTLVTVSS
VL: EIVMTQSPASLSLSQEERVTITCRASQSVRSALAWYQQKPGQAPKLLIYGTSNRYTGVPSRFSGSGSGTDFTFTISSLEPEDVAVYYCLQHWSYPLTFGAGTKVELK
notes: Caninized antibody
- EC50 [3]: 0.246 µg/mL

B11: Ab14 (antibody, V domains shown)
VH: EVQLVQSGAEVKKPGASVKVSCKTSGYTFIDYPMYWVRQAPGAGLEWMGYIDPYNGATSYNQKFQGRVTLTADTSTSTAYMELSSLRAGDIAVYYCARAVVATDVMENWGQGTLVTVSS
VL: DIVMTQTPLSLSVSPGETASISCKASQSLRSALAWFRQKPGQSPQRLIYLVSNRYPGVPDRFSGSGSGTDFTLRISRVEAEDTGVYYCLQHWQFPLTFGAGTKVELK
notes: Caninized antibody
- EC50 [3]: 1.78 µg/mL

B12: Ab3 (antibody, V domains shown)
VH: EVQLVQSGAEVVKPGASVKVSCKTSGYSFTDYPIYWVRQAPGAGLEWIGYIDPYNGGTTYNQNFKDRVTLTADKSTSTAYMELSSLRAGDIAVYYCATAVVATDVMENWGQGTLVTVSS
VL: EIVMTQSPASLSLSQEERVTITCRASQNVRNALAWYQQKPGQAPKLLIYLTSNRYTGVPSRFSGSGSGTDFTFTISSLEPEDVAVYYCLQHWNYPLTFGAGTKVELK
notes: Caninized antibody
- TF-1 cell proliferation inhibition IC50 [2]: 52.7 nM
- EC50 [3]: 0.0459 µg/mL

B13: Ab23 (antibody, V domains shown)
VH: EVQLVQSGAEVVKPGASVKVSCKTSGYSFTDYPIYWVRQAPGAGLEWIGYIDPYNGGTTYNQNFKDRVTLTADKSTSTAYMELSSLRAGDIAVYYCATAVVATDVMENWGQGTLVTVSS
VL: DIVMTQTPLSLSVSPGETASISCKASQNLRNALAWFRQKPGQSPQALIYLVSNRYPGVPDRFSGSGSGTDFTLRISRVEAEDTGVYYCLQHWQYPLTFGAGTKVELK
notes: Caninized antibody
- TF-1 cell proliferation inhibition IC50 [2]: 35.2 nM
- EC50 [3]: 0.108 µg/mL

B14: Ab8 (antibody, V domains shown)
VH: EVQLVQSGAEVKKPGASVKVSCKTSGYTFIDYPMYWVRQAPGAGLEWMGYIDPYNGATSYNQKFQGRVTLTADTSTSTAYMELSSLRAGDIAVYYCARAVVATDVMENWGQGTLVTVSS
VL: EIVMTQSPASLSLSQEERVTITCRASQSVRSALAWYQQKPGQAPKLLIYGTSNRYTGVPSRFSGSGSGTDFTFTISSLEPEDVAVYYCLQHWSYPLTFGAGTKVELK
notes: Caninized antibody
- EC50 [3]: 12.4 µg/mL

B15: Ab9 (antibody, V domains shown)
VH: EVQLVQSGAEVKKPGASVKVSCKTSGYTFIDYPMYWVRQAPGAGLEWMGYIDPYNGATSYNQKFQGRVTLTADTSTSTAYMELSSLRAGDIAVYYCARAVVATDVMENWGQGTLVTVSS
VL: DIVLTQTPLSLSVSPGETASISCKASQNVRNAVAWFRQKPGQSPQALIYLASNRYTGVPDRFSGSGSGTDFTLRISRVEAEDTGDYFCLQHWNYPLTFGAGTKVELK
notes: Caninized antibody
- EC50 [3]: 0.0926 µg/mL

B16: Ab5 (antibody, V domains shown)
VH: EVQLVQSGAEVKKPGASVKVSCKTSGYTFIDYPMYWVRQAPGAGLEWMGYIDPYNGATSYNQKFQGRVTLTADTSTSTAYMELSSLRAGDIAVYYCARAVVATDVMENWGQGTLVTVSS
VL: EIVMTQSPASLSLSQEERVTITCRASQNVRNALAWYQQKPGQAPKLLIYLTSNRYTGVPSRFSGSGSGTDFTFTISSLEPEDVAVYYCLQHWNYPLTFGAGTKVELK
notes: Caninized antibody
- TF-1 cell proliferation inhibition IC50 [2]: 34.2 nM
- EC50 [3]: 0.0765 µg/mL

B17: Ab24 (antibody, V domains shown)
VH: EVQLVQSGAEVKKPGASVKVSCKTSGYTFIDYPMYWVRQAPGAGLEWMGYIDPYNGATSYNQNFKGRVTLTADKSTSTAYMELSSLRAGDIAVYYCATAVVATDVMENWGQGTLVTVSS
VL: DIVLTQTPLSLSVSPGETASISCKASQNVRNAVAWFRQKPGQSPQALIYLASNRYTGVPDRFSGSGSGTDFTLRISRVEAEDTGDYFCLQHWNYPLTFGAGTKVELK
notes: Caninized antibody
- TF-1 cell proliferation inhibition IC50 [2]: 4.09 nM
- EC50 [3]: 0.134 µg/mL
